According to US20140228540A1, “POLYPEPTIDES THAT BIND TISSUE INHIBITOR OF METALLOPROTEINASE TYPE THREE (TIMP-3), COMPOSITIONS AND METHODS” (Amgen Inc., priority 2009, published 2014):

What was measured:
HTB-94 cells = assay: Accumulation of TIMP-3 in the medium of cultured HTB-94 cells; assay type: cell-based
Experimental: This example describes an assay to evaluate the accumulation of TIMP-3 in the medium of cultured cells. HTB-94™ cells (a chondrocytic cell line available from the American Type Culture Collection, Manassas, Va.) are plated to 24-well tissue culture plates at 1×10̂5 cells per well in 1 ml growth medium (RPM11640, 10% FBS, 1% PSG), and incubated at 37 C, 5% CO2 overnight. The cells are then washed once with PBS, and the wells are replenished with 250 microL serum-free medium (RPM11640, 1% PSG; designated SF in the tables below) to which is added the polypeptide being tested or a control (for example medium containing heparin, 1 mg/ml). Proteins to be tested are diluted to appropriate concentrations, for example as shown in the Tables below, and added to the cells. Cells are then incubated at 37 C, 5% CO2 for two additional days, day 2 conditioned medium (CM) samples are collected and clarified by centrifugation (i.e., for 5 minutes at 10K RPM) and the supernatant fluid is collected and stored at −20 C until assayed. Analysis is done on 100 microL CM samples, either by Western blot or by using a standard human TIMP-3 ELISA as per the manufacturer's protocol (R&D Systems Inc., Minneapolis, Minn.).

[1] = tested on: biotinylated recombinant human or mouse TIMP-3; assay: TIMP-3 AlphaScreen binding assay
Experimental: Peptides were also evaluated by AlphaScreen® (Amplified Luminescent Proximity Homogeneous Assay; PerkinElmer, Waltham, Mass.) a very sensitive non-radioactive homogeneous assay technology that allows the screening of a large range of biological interactions and activities, substantially according to the manufacturer's instructions. Briefly, all dilutions are made in AlphaScreen® Buffer: [40 mM HEPES pH 7.5, 100 mM NaCl, 1 mM CaCl2, 0.1% BSA, 0.05% Tween-20]. The LRP-1 peptides are titrated in a separate polypropylene 96-well plate (Falcon) starting at 4 microM concentration and then diluted serially 3-fold for 12-points, with the last point buffer only. First 2 microL/well of protein titration curve is added to white, small volume, 384-well assay plate (Greiner Bio-One, Stonehouse, UK) in duplicate. Next, 2 microL of biotinylated (AFS, in-house conjmicroGation) recombinant human or mouse TIMP-3, is added at 12 nM (or 3 nM final assay concentration) to the assay plate. Lastly, in subdued light 4 microL of a mixture of streptavidin donor beads, anti-mouse IgG acceptor beads (PerkinElmer) both diluted to 20 microG/mL (10 microG/mL final assay concentration) and 2 nM (1 nM final concentration) rat-anti-HA (clone3F10)-HRP (Roche Diagnostics) is added to the plates. Plates containing 8 microL final assay volume are covered with TopSeal A (to prevent evaporation), spun quickly at 1000 rpm, and incubated overnight (covered with foil to prevent light exposure) before reading on Fusion plate reader (PerkinElmer) using AlphaScreen® parameters (excitation 680 nm and emission 520-620 nm). Data is analyzed using GraphPad Prism 4.01 software. Binding to TIMP-3 is reported as total signal (cps).

HuTIMP-3 [2] = biological target: T1, HuTIMP-3 (Homo sapiens, UniProt P35625); assay: Indirect binding ELISA with TIMP-3 presented via anti-TIMP-3 neutralizing antibody; conditions: human TIMP-3
T1 sequence (P35625 24-211): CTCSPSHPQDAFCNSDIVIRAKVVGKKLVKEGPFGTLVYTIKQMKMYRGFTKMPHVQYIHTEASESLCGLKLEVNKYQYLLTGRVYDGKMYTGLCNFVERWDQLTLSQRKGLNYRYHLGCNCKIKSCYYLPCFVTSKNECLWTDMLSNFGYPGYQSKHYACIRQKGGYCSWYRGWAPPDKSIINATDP
Experimental: After incubation, the plate contents are discarded and 250 microL/well of blocking buffer (1% BSA, TBS [pH 7.5], 1 mM CaCl2) is added to the plate which is incubated with shaking for 1 hour at room temperature. The plate is then washed three times with 200 microL/well with wash buffer 1 (TBS [pH 7.5], 1 mM CaCl2) followed by the addition of 100 microL of 20 nM recombinant human TIMP-3. The plate is incubated at room temperature for 1 hour. The LRP-1 peptides are titrated as described previously, and 100 microL/well of the diluted LRP-1 peptide titration is added to the TIMP-3 coated plate and allowed to bind for 1.5 hour at room temperature with shaking. After incubation, the plate is washed and the ELISA performed substantially as described previously for the direct binding ELISA.

MuTIMP-3 = biological target: T2, MuTIMP-3 (Mus musculus, UniProt P39876); assay: Directly coated TIMP-3 binding ELISA (mouse); conditions: mouse TIMP-3; for EC50: direct
T2 sequence (P39876 24-211): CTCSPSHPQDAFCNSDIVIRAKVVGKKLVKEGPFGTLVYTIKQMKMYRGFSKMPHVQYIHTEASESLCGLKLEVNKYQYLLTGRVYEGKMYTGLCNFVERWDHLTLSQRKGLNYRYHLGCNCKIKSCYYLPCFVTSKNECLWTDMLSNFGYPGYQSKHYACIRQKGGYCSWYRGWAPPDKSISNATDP

HuTIMP-3 [3] = biological target: T1, HuTIMP-3; assay: Directly coated TIMP-3 binding ELISA (human); conditions: human TIMP-3; for EC50: direct
A549 cells = assay: Binding and internalization of exogenous TIMP-3 by confocal microscopy; assay type: cell-based, human; conditions: in the presence of heparin
Experimental: This example describes the internalization of exogenous TIMP-3 as examined by confocal microscopy. A549 cells (a continuous tumor-cell line from a human lung carcinoma with properties of type II alveolar epithelial cells, either wild-type or A549 cells lacking the LRP-1 gene) were incubated typically with 1 microG/ml TIMP-3 for 30 minutes at 4 degrees, with or without various pre-treatments (including heparin), then washed, fixed and stained with a fluorescently labeled anti-TIMP-3 antibody, or washed and then incubated further at 4 or 37 degrees before fixation and staining. Cells were also assayed for the accumulation of TIMP-3 in the culture medium, by Western blot or ELISA, substantially as described herein.

[4] = tested on: cultured chondrocytic cells; conditions: cited from earlier work
TIMP-3 = assay: Binding ELISA of LRP-1 peptides to TIMP-3 (Table 2; format and species not specified); parameters: species or system human or mouse
[5] = biological target: T3, inhibition of MMP-13 by TIMP-3 (Homo sapiens, UniProt P35625); assay: MMP-13 inhibition assay: effect of test molecules on inhibition of MMP-13 by TIMP-3; assay type: biochemical
T3 construct: purchased Calbiochem/EMD (active MMP-13)
T3 sequence (P35625 24-211): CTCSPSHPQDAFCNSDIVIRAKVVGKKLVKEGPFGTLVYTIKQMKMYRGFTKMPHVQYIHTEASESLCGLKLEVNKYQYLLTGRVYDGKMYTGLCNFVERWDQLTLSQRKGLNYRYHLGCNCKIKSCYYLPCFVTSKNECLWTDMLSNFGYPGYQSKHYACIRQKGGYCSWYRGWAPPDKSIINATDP
Experimental: Briefly, test molecules are titrated in assay buffer and added to black polystyrene 96 or 384 well assay plate (Griener Bio-One, Germany). The concentrations of the test molecules are dependant on the activity of the molecule; for example, titrations may begin at 1000, 2000 or 3000 nM and use five-fold dilutions for titration, although other types of titrations may be used or a single concentration may be tested. […] Active MMP-13 (Calbiochem/EMD,) is diluted in assay buffer to give a final assay concentration of 1.46 nM added to the test molecule titration/TIMP-3 mixture and incubated for 10 minutes at room temperature in a final volume of 50 microL. Alternatively, pro-MMP-13 (R & D Systems, Minneapolis, Minn.) is activated with aminophenyl mercuric acetate (APMA; Calbiochem/EMD,) for 2 hours at 37 degrees C., and used in the assay.
A fluorogenic substrate such as Mca-PLGL-Dpa-AR-NH2 Fluorogenic MMP Substrate or Mca-KPLGL-Dpa-AR-NH2 Fluorogenic Peptide Substrate (R & D Systems) is prepared to a final assay concentration of 20 microM in assay buffer, and added to the MMP-13 enzyme/huTIMP-3/test molecule solution. MMP-13 activity is measured kinetically for 20 minutes using Molecular Devices fluorescent plate reader. The effect of the molecules being tested is expressed as percent of expected maximum TIMP-3 inhibition of MMP-13 enzymatic activity.

LA7: LRP-1 peptide monomer, amino acids 1015- (end not printed)
TIMP-3 (ng/ml) in conditioned medium (HTB-94 cells; Table 6, peptides 2 microM): 0.90 ng/mL | AlphaScreen total signal (cps) Assay 1 [1]: 2,200 cps | EC50 (HuTIMP-3 [2]): > 1 µM | EC50 (MuTIMP-3): > 1 µM | EC50 (HuTIMP-3 [3]): > 1 µM

LA8-10: LRP-1 peptide multimer, amino acids 1062- (end not printed)
TIMP-3 (ng/ml) in conditioned medium (HTB-94 cells; Table 7, peptides 2 microM): 3.91 ng/mL | AlphaScreen total signal (cps) Assay 1 [1]: 110,000 cps | AlphaScreen total signal (cps) Assay 2 [1]: 100,000 cps | EC50 (HuTIMP-3 [3]): > 1 µM

LA28: LRP-1 peptide monomer, amino acids 3613-3653
TIMP-3 (ng/ml) in conditioned medium (HTB-94 cells; Table 7, peptides 2 microM): 0.99 ng/mL | AlphaScreen total signal (cps) Assay 1 [1]: 2,200 cps | EC50 (MuTIMP-3): > 1 µM | EC50 (HuTIMP-3 [3]): > 1 µM

LA5-6: LRP-1 peptide multimer, amino acids 931-1014
TIMP-3 (ng/ml) in conditioned medium (HTB-94 cells; Table 7, peptides 2 microM): 2.38 ng/mL | AlphaScreen total signal (cps) Assay 1 [1]: 6,000 cps | AlphaScreen total signal (cps) Assay 2 [1]: 4,000 cps | EC50 (HuTIMP-3 [3]): > 1 µM

heparin [reference compound]
TIMP-3 (ng/ml) in conditioned medium (HTB-94 cells; Table 5, heparin control (1 mg/ml per method)): 10.98 ng/mL | TIMP-3 (ng/ml) in conditioned medium (HTB-94 cells; Table 6, heparin control (1 mg/ml per method)): 14.55 ng/mL | TIMP-3 (ng/ml) in conditioned medium (HTB-94 cells; Table 7, heparin control (1 mg/ml per method)): 26.15 ng/mL | TIMP-3 (ng/ml) in conditioned medium (HTB-94 cells; Table 8, heparin control (1 mg/ml per method)): 17.31 ng/mL | Binding of TIMP-3 to the cell surface (A549 cells): decreased

LA15: LRP-1 peptide monomer, amino acids 2696- (end not printed)
TIMP-3 (ng/ml) in conditioned medium (HTB-94 cells; Table 6, peptides 2 microM): 1.29 ng/mL | AlphaScreen total signal (cps) Assay 1 [1]: 2,200 cps | AlphaScreen total signal (cps) Assay 2 [1]: 2,000 cps | EC50 (MuTIMP-3): > 1 µM

LA4: LRP-1 peptide monomer, amino acids 895-930
TIMP-3 (ng/ml) in conditioned medium (HTB-94 cells; Table 6, peptides 2 microM): 1.07 ng/mL | AlphaScreen total signal (cps) Assay 1 [1]: 2,200 cps | AlphaScreen total signal (cps) Assay 2 [1]: 2,000 cps | EC50 in TIMP-3 Binding ELISA, Indirect HuTIMP-3 (HuTIMP-3 [2]): no binding | EC50 in TIMP-3 Binding ELISA, Direct MuTIMP-3 (MuTIMP-3): no binding | EC50 in TIMP-3 Binding ELISA, Direct HuTIMP-3 (HuTIMP-3 [3]): no binding

B1: RAP: receptor associated protein, a general inhibitor of LRP-1 (protein, UniProt P30533 35-357, looked up)
Alpha-2-macroglobulin …: YSREKNQPKPSPKRESGEEFRMEKLNQLWEKAQRLHLPPVRLAELHADLKIQERDELAWKKLKLDGLDEDGEKEARLIRNLNVILAKYGLDGKKDARQVTSNSLSGTQEDGLDDPRLEKLWHKAKTSGKFSGEELDKLWREFLHHKEKVHEYNVLLETLSRTEEIHENVISPSDLSDIKGSVLHSRHTELKEKLRSINQGLDRLRRVSHQGYSTEAEFEEPRVIDLWDLAQSANLTDKELEAFREELKHFEAKIEKHNHYQKQLEIAHEKLRHAESVGDGERVSRSREKHALLEGRTKELGYTVKKHLQDLSGRISRARHNEL
levels of TIMP-3 in the medium of cultured chondrocytic cells [4]: increases

B2: Cluster II: LRP-1 peptide, amino acids 854-1184 of LRP-1; contains 8 ligand binding domains (protein)
chain: CQPGEFACANSRCIQERWKCDGDNDCLDNSDEAPALCHQHTCPSDRFKCENNRCIPNRWLCDGDNDCGNSEDESNATCSARTCPPNQFSCASGRCIPISWTCDLDDDCGDRSDESASCAYPTCFPLTQFTCNNGRCININWRCDNDNDCGDNSDEAGCSHSCSSTQFKCNSGRCIPEHWTCDGDNDCGDYSDETHANCTNQATRPPGGCHTDEFQCRLDGLCIPLRWRCDGDTDCMDSSDEKSCEGVTHVCDPSVKFGCKDSARCISKAWVCDGDNDCEDNSDEENCESLACRPPSHPCANNTSVCLPPDKLCDGNDDCGDGSDEGELCDQ
TIMP-3 (ng/ml) in conditioned medium (HTB-94 cells; Table 5, polypeptide 0.5 microM, listed as C II (prep 1)): 1.99 ng/mL | TIMP-3 (ng/ml) in conditioned medium (HTB-94 cells; Table 5, polypeptide 0.5 microM, listed as C II (prep 2)): 1.35 ng/mL | TIMP-3 (ng/ml) in conditioned medium (HTB-94 cells; Table 5, polypeptide 1 microM, listed as C II (prep 1)): 2.23 ng/mL | TIMP-3 (ng/ml) in conditioned medium (HTB-94 cells; Table 5, polypeptide 1 microM, listed as C II (prep 2)): 1.71 ng/mL | TIMP-3 (ng/ml) in conditioned medium (HTB-94 cells; Table 5, polypeptide 2 microM, listed as C II (prep 1)): 5.18 ng/mL | TIMP-3 (ng/ml) in conditioned medium (HTB-94 cells; Table 5, polypeptide 2 microM, listed as C II (prep 2)): 1.92 ng/mL | TIMP-3 (ng/ml) in conditioned medium (HTB-94 cells; Table 6, peptides 2 microM): 8.49 ng/mL | TIMP-3 (ng/ml) in conditioned medium (HTB-94 cells; Table 7, peptides 2 microM): 13.42 ng/mL | TIMP-3 (ng/ml) in conditioned medium (HTB-94 cells; Table 8, polypeptide 0.5 microM): 1.59 ng/mL | TIMP-3 (ng/ml) in conditioned medium (HTB-94 cells; Table 8, polypeptide 1 microM): 1.94 ng/mL | TIMP-3 (ng/ml) in conditioned medium (HTB-94 cells; Table 8, polypeptide 2 microM): 2.76 ng/mL | Accumulation of TIMP-3 in conditioned medium by Western blot (HTB-94 cells; Western blot): enhanced accumulation of TIMP-3 | Binding to TIMP-3 (affinity, in words) (TIMP-3): submicromolar affinity | Effect on TIMP-3's inhibition of MMP-13 (in words) [5]: minimal effect
